From patent US20260109758A1 (BIOSION, published 2026)
Read-outs that look alike come from different tables or passages of the source.

B1: BSI-502-003 (bispecific antibody, human IgG1, kappa)
heavy: EVQLVESGGGLVQPGGSLRLSCAASGFTFSTYGMSWVRQAPGKGLVWVATINSNGGSTSYPDSVKGRFTISRDNAKNTLYLQMNSLRAEDTAVYYCARFFRFRNAMDYWGQGTLVTVSSGGGGSGGGGSGGGGSGGGGSDIQMTQSPSSLSASVGDRVTITCRTSENIYSYLAWYQQKPGKAPKFLVYNAKTLAEGVPSRFSGSGSGTDFTLTISSLQPEDFATYYCQHYYGPPTWTFGQGTKVEIKGGGGSGGGGSQVQLVQSGAEVKKPGASVKVSCKASGYTFTTYWMHWVRQAPGQGLEWMGVIDPSDSDTTYNQKFKGRVTMTRDTSTSTVYMELSSLRSEDTAVYYCTRSLDGYYDYWGQGTLVTVSSASTKGPSVFPLAPSSKSTSGGTAALGCLVKDYFPEPVTVSWNSGALTSGVHTFPAVLQSSGLYSLSSVVTVPSSSLGTQTYICNVNHKPSNTKVDKKVEPKSCDKTHTCPPCPAPEAQGGPSVFLFPPKPKDTLYITREPEVTCVVVDVSHEDPEVKFNWYVDGVEVHNAKTKPREEQYNSTYRVVSVLTVLHQDWLNGKEYKCQVSNKALPAPIEKTISKAKGQPREPQVYTLPPSRDELTKNQVSLTCLVKGFYPSDIAVEWESNGQPENNYKTTPPVLDSDGSFFLYSKLTVDKSRWQQGNVFSCSVMHEALHNHYTQKSLSLSPG
light: DIQMTQSPSSLSASVGDRVTITCRPTENIYSYLAWYQQKPGKAPKLLIYFARTLAEGVPSRFSGSGSGTDFTLTISSLQPEDFATYYCQHHYGTPWTFGGGTKVEIKRTVAAPSVFIFPPSDEQLKSGTASVVCLLNNFYPREAKVQWKVDNALQSGNSQESVTEQDSKDSTYSLSSTLTLSKADYEKHKVYACEVTHQGLSSPVTKSFNRGEC
notes: hu1C5F12E9-V8 IgG with an anti-IL4R scFv (huC2C1A1A1-V15, VH-VL) at the N-terminus of the heavy chain; AQQ and YTE already stand in the entry
B2: BSI-502-005 (bispecific antibody, human IgG1, kappa)
heavy: QVQLVQSGAEVKKPGASVKVSCKASGYTFTTYWMHWVRQAPGQGLEWMGVIDPSDSDTTYNQKFKGRVTMTRDTSTSTVYMELSSLRSEDTAVYYCTRSLDGYYDYWGQGTLVTVSSASTKGPSVFPLAPSSKSTSGGTAALGCLVKDYFPEPVTVSWNSGALTSGVHTFPAVLQSSGLYSLSSVVTVPSSSLGTQTYICNVNHKPSNTKVDKKVEPKSCDKTHTCPPCPAPEAQGGPSVFLFPPKPKDTLYITREPEVTCVVVDVSHEDPEVKFNWYVDGVEVHNAKTKPREEQYNSTYRVVSVLTVLHQDWLNGKEYKCQVSNKALPAPIEKTISKAKGQPREPQVYTLPPSRDELTKNQVSLTCLVKGFYPSDIAVEWESNGQPENNYKTTPPVLDSDGSFFLYSKLTVDKSRWQQGNVFSCSVMHEALHNHYTQKSLSLSPGKGGGGSGGGGSEVQLVESGGGLVQPGGSLRLSCAASGFTFSTYGMSWVRQAPGKGLVWVATINSNGGSTSYPDSVKGRFTISRDNAKNTLYLQMNSLRAEDTAVYYCARFFRFRNAMDYWGQGTLVTVSSGGGGSGGGGSGGGGSGGGGSDIQMTQSPSSLSASVGDRVTITCRTSENIYSYLAWYQQKPGKAPKFLVYNAKTLAEGVPSRFSGSGSGTDFTLTISSLQPEDFATYYCQHYYGPPTWTFGQGTKVEIK
light: B1 light
notes: hu1C5F12E9-V8 IgG with an anti-IL4R scFv (VH-VL) at the C-terminus of the heavy chain; AQQ and YTE already stand in the entry
B3: BSI-502-007 (bispecific antibody, human IgG1, kappa)
heavy: QVQLVQSGAEVKKPGASVKVSCKASGYTFTTYWMHWVRQAPGQGLEWMGVIDPSDSDTTYNQKFKGRVTMTRDTSTSTVYMELSSLRSEDTAVYYCTRSLDGYYDYWGQGTLVTVSSGGGGSGGGGSGGGGSGGGGSDIQMTQSPSSLSASVGDRVTITCRPTENIYSYLAWYQQKPGKAPKLLIYFARTLAEGVPSRFSGSGSGTDFTLTISSLQPEDFATYYCQHHYGTPWTFGGGTKVEIKGGGGSGGGGSEVQLVESGGGLVQPGGSLRLSCAASGFTFSTYGMSWVRQAPGKGLVWVATINSNGGSTSYPDSVKGRFTISRDNAKNTLYLQMNSLRAEDTAVYYCARFFRFRNAMDYWGQGTLVTVSSASTKGPSVFPLAPSSKSTSGGTAALGCLVKDYFPEPVTVSWNSGALTSGVHTFPAVLQSSGLYSLSSVVTVPSSSLGTQTYICNVNHKPSNTKVDKKVEPKSCDKTHTCPPCPAPEAQGGPSVFLFPPKPKDTLYITREPEVTCVVVDVSHEDPEVKFNWYVDGVEVHNAKTKPREEQYNSTYRVVSVLTVLHQDWLNGKEYKCQVSNKALPAPIEKTISKAKGQPREPQVYTLPPSRDELTKNQVSLTCLVKGFYPSDIAVEWESNGQPENNYKTTPPVLDSDGSFFLYSKLTVDKSRWQQGNVFSCSVMHEALHNHYTQKSLSLSPG
light: DIQMTQSPSSLSASVGDRVTITCRTSENIYSYLAWYQQKPGKAPKFLVYNAKTLAEGVPSRFSGSGSGTDFTLTISSLQPEDFATYYCQHYYGPPTWTFGQGTKVEIKRTVAAPSVFIFPPSDEQLKSGTASVVCLLNNFYPREAKVQWKVDNALQSGNSQESVTEQDSKDSTYSLSSTLTLSKADYEKHKVYACEVTHQGLSSPVTKSFNRGEC
notes: huC2C1A1A1-V15 IgG with an anti-TSLP scFv (VH-VL) at the N-terminus of the heavy chain; AQQ and YTE already stand in the entry
B4: BSI-502-008 (bispecific antibody, human IgG1, kappa)
heavy: DIQMTQSPSSLSASVGDRVTITCRPTENIYSYLAWYQQKPGKAPKLLIYFARTLAEGVPSRFSGSGSGTDFTLTISSLQPEDFATYYCQHHYGTPWTFGGGTKVEIKGGGGSGGGGSGGGGSGGGGSQVQLVQSGAEVKKPGASVKVSCKASGYTFTTYWMHWVRQAPGQGLEWMGVIDPSDSDTTYNQKFKGRVTMTRDTSTSTVYMELSSLRSEDTAVYYCTRSLDGYYDYWGQGTLVTVSSGGGGSGGGGSEVQLVESGGGLVQPGGSLRLSCAASGFTFSTYGMSWVRQAPGKGLVWVATINSNGGSTSYPDSVKGRFTISRDNAKNTLYLQMNSLRAEDTAVYYCARFFRFRNAMDYWGQGTLVTVSSASTKGPSVFPLAPSSKSTSGGTAALGCLVKDYFPEPVTVSWNSGALTSGVHTFPAVLQSSGLYSLSSVVTVPSSSLGTQTYICNVNHKPSNTKVDKKVEPKSCDKTHTCPPCPAPEAQGGPSVFLFPPKPKDTLYITREPEVTCVVVDVSHEDPEVKFNWYVDGVEVHNAKTKPREEQYNSTYRVVSVLTVLHQDWLNGKEYKCQVSNKALPAPIEKTISKAKGQPREPQVYTLPPSRDELTKNQVSLTCLVKGFYPSDIAVEWESNGQPENNYKTTPPVLDSDGSFFLYSKLTVDKSRWQQGNVFSCSVMHEALHNHYTQKSLSLSPG
light: B3 light
notes: huC2C1A1A1-V15 IgG with an anti-TSLP scFv (VL-VH) at the N-terminus of the heavy chain; AQQ and YTE already stand in the entry

Assays:
[1] = target: T1, biotin-labeled human TSLP-Fc (human, biotin-labeled); assay: cell-based blocking FACS: antibody pre-mixed with biotin human TSLP-Fc; blocked binding to cell-surface TSLPR/IL7Ra on HEK293T-TSLPR/IL7R/STAT5-Luc 5C5 cells
T1 construct: also called TSLP-Fc protein; TSLP-Fc-biotin
Procedure: (§1) The cells were prepared following the instruction of lipofectamine 3000 transfection reagent (Thermo Fisher), by transfecting HEK293T cells (ATCC® CRL-11268) with pCMV-T-P plasmids inserted with TSLPR coding sequence between EcoRI and Xba1 sites and pCMV3-SP plasmids inserted with IL7Ra coding sequence between HindIII and Xba1 sites as well as pGL4.52 [luc2P/STAT5RE/Hygro](Promega).
(§2) The cells were harvested from cell culture flasks, washed twice and re-suspended in phosphate buffered saline (PBS) containing 2% v/v Fetal Bovine Serum (FACS buffer). […] Cells were washed twice with FACS buffer, and then added and incubated with 100 μL/well R-Phycoerythrin Streptavidin (1:500 dilution in FACS buffer, Jackson Immunoresearch, Cat #016-110-084) for 40 minutes at 4° C. in dark. Cells were washed twice and re-suspended in FACS buffer. Fluorescence was measured using a Becton Dickinson FACS Canto II-HTS equipment. Data was analyzed using Graphpad Prism and IC₅₀ values were reported.

[2] = target: T2, human IL4Rα expressed on 293F-IL4Rα cell surface (human, UniProt P24394 26-825); assay: flow cytometry on 293F-IL4Rα cells, PE anti-human IgG Fc
T2 construct: whole, on cells; also called human IL4Rα-expressing cells; cell surface IL4R
Procedure: (§3) Cells were washed twice with FACS buffer, and added with 100 μL/well R-Phycoerythrin AffiniPure Goat Anti-Human IgG, Fey fragment specific (1:1000 dilution in FACS buffer, Jackson Immunoresearch, Cat #109-115-098). Following an incubation of 40 minutes at 4° C. in dark, cells were washed three times and resuspended in FACS buffer. Fluorescence was measured using a Becton Dickinson FACS Canto II-HTS equipment. Data was analyzed using Graphpad Prism and EC₅₀ values were reported.

[3] = target: T3, recombinant human TSLP-his (human, UniProt Q969D9 29-159, biotin-labeled in the ELISAs); assay: competitive ELISA: antibody pre-mixed with biotin human TSLP-his; blocked binding to coated TSLPR-Fc/IL7Ra-Fc
T3 construct: In-house made; not shown: His tag at the C-terminus
Procedure: Briefly, 100 μL human TSLPR-Fc proteins (SEQ ID NO: 34-SEQ ID NO: 38 fusion, prepared in-house) at 1 μg/mL in PBS, and 100 μL human IL7Ra-Fc proteins (SEQ ID NO: 35-SEQ ID NO: 38 fusion, prepared in-house) at 1 μg/mL in PBS were coated on 96-well micro plates overnight at 4° C. The next day, plates were washed with wash buffer (PBS+0.05% Tween-20, PBST), and blocked with 5% w/v non-fatty milk in PBST for 2 hours at 37° C. Plates were then washed again using wash buffer.
After incubation at 37° C. for 40 minutes, plates were washed 4 times using wash buffer. […] Plates were washed again using wash buffer. Finally, TMB was added and the reaction was stopped using 1M H₂SO₄. The absorbance was read on a microplate reader using dual wavelength mode with 450 nm for TMB and 630 nm as the reference wavelength, then the OD (450-630) values were plotted against the antibody concentration. Data was analyzed using Graphpad Prism and IC₅₀ values were reported.

[4] = target: T1, biotin-labeled human TSLP-Fc; assay: cell-based blocking FACS: antibody pre-mixed with biotin human TSLP-Fc; blocked binding to cell-surface TSLPR/IL7Ra on HEK293T-TSLPR/IL7R/STAT5-Luc 5C5 cells; remark: listed apart in the source
Procedure: as §1, §2

[5] = target: T2, human IL4Rα expressed on 293F-IL4Rα …; assay: flow cytometry on 293F-IL4Rα cells, PE anti-human IgG Fc; remark: listed apart in the source
Procedure: as §3

[6] = target: T4, recombinant human IL4Rα-his (human, UniProt P24394 26-231, limits assumed, biotin-labeled in the capture ELISA); assay: competitive ELISA: coated human IL4Rα-his, antibody titrated; blocked ligand biotin human IL4
T4 construct: In-house made; not shown: His tag at the C-terminus
Procedure: Briefly, 100 μL human IL4Rα-his proteins (prepared in-house, IL4Rα of SEQ ID NO: 33 with C-terminal His tag) were coated on 96-well micro plates at 2 μg/mL in PBS overnight at 4° C. The next day, plates were washed with wash buffer (PBS+0.05% w/v Tween-20, PBST), and blocked with 5% w/v non-fatty milk in PBST for 2 hours at 37° C. Plates were then washed again using wash buffer. Serially diluted bispecific antibodies or the controls (starting at 100 nM with a 5-fold serial dilution) in 2.5% w/v non-fatty milk in PBST, 100 μL per well, were added to the IL4Rα bound plates, and incubated at 37° C. for 40 minutes. […] Plates were washed again using wash buffer. Thereafter, the plates were added with 100 μL/well of streptavidin conjugated HRP (1:10000 dilution in PBST buffer, Jackson Immunoresearch, Cat #016-030-084) and incubated for 40 minutes at 37° C. Plates were washed again using wash buffer. Finally, TMB was added and the reaction was stopped using 1M H₂SO₄, and the absorbance was read at 450 nm. Data was analyzed using Graphpad Prism and IC₅₀ values were reported.

[7] = target: T3, recombinant human TSLP-his; assay: capture ELISA: antibody captured on anti-human IgG Fc F(ab')2, biotin human TSLP-his, SA-HRP
Procedure: Briefly, 96-well micro plates were coated with 100 μL 2 μg/mL AffiniPure F(ab′)₂ Fragment Goat Anti-Human IgG, Fey fragment specific (Jackson Immuno Research, Cat #109-006-008) in PBS and incubated overnight at 4° C. Plates were washed 4 times with wash buffer (PBS+0.05% Tween-20, PBST) and then blocked with 200 μL/well blocking buffer (5% w/v non-fatty milk in PBST) for 2 hours at 37° C. […] After the final wash, the plates were incubated with 100 μL/well TMB (Innoreagents). The reaction was stopped 15 minutes later at room temperature with 50 μL/well 1M H₂SO₄, and the absorbance of each well was read on a microplate reader using dual wavelength mode with 450 nm for TMB and 630 nm as the reference wavelength. The OD (450-630) values were plotted against antibody concentration. Data was analyzed using Graphpad Prism and EC₅₀ values were reported.

| Binder | IC50 [1] [nM] | EC50 [2] [nM] | IC50 [3] [nM] | IC50 [4] [nM] | EC50 [5] [nM] | IC50 [6] [nM] | EC50 [7] [nM] |
| --- | --- | --- | --- | --- | --- | --- | --- |
| B1 | 1.47 | 0.203 | 0.134 |  |  |  |  |
| B2 |  |  |  | 1.39 | 0.417 | 0.449 | 0.106 |
| B3 |  |  |  | 1.12 | 0.188 | 0.212 | 0.0844 |
| B4 |  |  |  | 1.13 | 0.176 | 0.236 | 0.0742 |
